Molecular target: Cereolysin O (CLO) of Bacillus cereus ATCC 11778 (BC1) (Bacillus cereus ATCC 11778 (endogenous in the culture))
Assay: SDS-PAGE with Western blot; retentates of BC1 microaerobic culture supernatants (grown with or without 1 g/L BSA, 3 kDa cut-off filter); boiled 5 min in Laemmli buffer with 50 mM DTT; 4-20% Tris-Glycine gel; blot with rabbit anti-streptolysin O antibody

Work on “Cereolysin O (CLO) of Bacillus cereus ATCC 11778 (BC1) (natural protein)” yielded a stoichiometry N of 2.

Source: paper PMC4735842
